Where a chain is given by its changes, count along the chain named. No end group written: not given here.
Experiments:
[1] = target: T1, full-length SHP2^T42A (Homo sapiens, UniProt Q06124, T42A); experiment: SHP2 activation assay using phosphopeptides (DiFMUP), SHP2 T42A; assay type: biochemical; settings: activation of full-length SHP2 T42A (0.05 nM) by phosphopeptide; DiFMUP substrate; HEPES pH 7.2 assay buffer; mean of N (column N)
T1 construct: Full-length SHP2 constructs were diluted in assay buffer; His6-TEV (N, cleaved yes); made in house; host or cells: E. coli BL21(DE3)
T1 sequence (Q06124 1-593 T42A): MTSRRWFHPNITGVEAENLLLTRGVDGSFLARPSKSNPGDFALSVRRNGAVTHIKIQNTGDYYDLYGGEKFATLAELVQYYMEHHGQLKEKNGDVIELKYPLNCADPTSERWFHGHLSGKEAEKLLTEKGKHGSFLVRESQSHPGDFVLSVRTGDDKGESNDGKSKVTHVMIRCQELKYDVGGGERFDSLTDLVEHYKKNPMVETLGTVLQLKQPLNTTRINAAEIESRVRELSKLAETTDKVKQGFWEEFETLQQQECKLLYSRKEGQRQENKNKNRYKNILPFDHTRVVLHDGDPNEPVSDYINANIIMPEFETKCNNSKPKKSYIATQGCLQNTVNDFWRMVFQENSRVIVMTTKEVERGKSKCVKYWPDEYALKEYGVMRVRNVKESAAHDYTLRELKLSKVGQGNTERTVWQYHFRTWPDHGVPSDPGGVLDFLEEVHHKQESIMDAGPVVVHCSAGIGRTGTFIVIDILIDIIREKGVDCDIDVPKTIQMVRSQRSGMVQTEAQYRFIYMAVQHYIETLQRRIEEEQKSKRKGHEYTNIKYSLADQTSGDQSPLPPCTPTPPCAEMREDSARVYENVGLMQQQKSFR

[2] = target: T2, full-length SHP2^WT (Homo sapiens, UniProt Q06124); experiment: SHP2 activation assay using phosphopeptides (DiFMUP), SHP2 WT; assay type: biochemical; settings: activation of full-length SHP2 WT (0.05 nM) by phosphopeptide; DiFMUP substrate; 60 mM HEPES pH 7.2, 75 mM KCl, 75 mM NaCl, 1 mM EDTA, 0.05% Tween-20, 0.5 mM TCEP; fluorescence read every 25 s for 6 min; mean of N (column N)
T2 construct: Full-length SHP2 constructs were diluted in assay buffer; His6-TEV (N, cleaved yes); made in house; host or cells: E. coli BL21(DE3)
T2 sequence (Q06124 1-593): T1 sequence (Q06124 1-593 T42A) with A42T
Method: SHP2 activation assays using phosphopeptides
Full-length SHP2 constructs were diluted in assay buffer (60 mM HEPES pH 7.2, 75 mM KCl, 75 mM NaCl,1 mM EDTA, 0.05% Tween-20, with 0.5 mM TCEP freshly added) to a 2X concentration of 0.1 nM. Peptides were serially diluted in assay buffer, with the last point of the concentration series fully without peptide. 15 μL of peptide and 15 μL of 800 μM DiFMUP was added to a black 96-well half area plate. Right before starting the plate reader assay, 30 μL SHP2 was added to each well a Supplementary Information - page 4 of 18 […]
final concentration of 0.05nM. Kinetic measurements (Ex 358/Em […]) were taken on a BioTek Neo2 plate reader every 25 seconds for 6 minutes. […]
(§1) OD600 reached 0.5. 20 mL of cell suspension was induced at 25 °C using a final concentration of 0.4% arabinose until the OD600 ~ 1 (after approximately 4 hours). The cells were spun down at 4000 rpm for 15 minutes, and the pellet was resuspended in PBS so that the OD600 ~1.5. The cells were stored in the fridge and used within a week.
(§2) For each sample, 75 μL of Dynabeads™ FlowComp™ Flexi Kit were washed twice in 1 mL SH2 buffer (50 mM HEPES pH 7.5, 150 mM NaCl, 1 mM TCEP, and 0.2% BSA) on a magnetic rack.
(§3) The beads were then resuspended in 75 μL of SH2 buffer. SH2 domains were thawed quickly and 20 μM of protein was added to the beads. SH2 buffer was added up to 150 μL, and the suspension was incubated for 1 hour at 4 °C while rotating. After 1 hour, the suspension was placed on a magnetic rack and washed twice with 1 mL SH2 buffer.
(§4) Preparing the phosphorylated cells
(§5) 150 μL of prepared cells per sample were spun down for 4000 rpm for 5 minutes at 4 °C.
(§6) Kinase screen buffer was prepared (50 mM Tris, 10 mM magnesium chloride, 150 mM sodium chloride; add 2 mM sodium orthovanadate and 1 mM TCEP fresh) and the cells of each sample were resuspended in 100 μL kinase screen buffer. Kinases c-Src, c-Abl, AncSZ, Eph1B were added to a final concentration of 2.5 µM each, creatine phosphate was added to a final concentration of 5 mM, and phosphokinase was added to a final concentration of 50 µg/mL. The suspension was incubated at 37 °C for 5 minutes before ATP was added to a final concentration of 1 mM. This mixture was incubated at 37 °C for 3 hours. After 3 hours, EDTA was added to a final concentration of 25 mM to quench the reaction. The input library control sample was not phosphorylated. These cells were spun down at 4000 rpm for 15 minutes at 4 °C. The cells were then resuspended in 100 µL of SH2 buffer + 0.1% BSA. Phosphorylation of the cells was confirmed by labeling with the PY20-PerCP-eFluor 710 pan-phosphotyrosine antibody followed by analysis via flow cytometry.
(§7) Enriching for cells displaying high-affinity phosphopeptide ligands
(§8) 100 μL of phosphorylated cells were mixed with 75 µL SH2-beads for 1 hour at 4 °C while rotating. After 1 hour, samples were placed on a magnetic rack, supernatant was removed and 1 mL SH2 buffer was added to each sample. This was rotated for 30 minutes at 4 °C to wash the beads.
(§9) After this wash, the beads were placed on a magnetic rack, the supernatant was removed and 50 µL […]
(§10) Preparing sequencing samples & deep sequencing
(§11) All SH2-selected samples and the input library control were resuspended in 50 µL MilliQ water, vortexed, and boiled for 10 minutes at 100 °C. The boiled lysate was used as the DNA template in a PCR reaction using the TruSeq-eCPX-Fwd and TruSeq-eCPX-Rev primers. The mixture resulting from this PCR was used directly into a second PCR to append Illumina sequencing adaptors and Supplementary Information - page 5 of 18

[3] = target: SHP2 N-SH2 domain, wild type (N-SH2-Avi-biotin) (UniProt Q06124); experiment: peptide display screen (pTyr-Var Library); settings: N = 2 independent library transformations and screens; parent: est. 1.3; read off a plot
[4] = target: T3, SHP2 C-SH2^WT domain (Homo sapiens, UniProt Q06124); experiment: SH2 specificity profiling by bacterial peptide display (Human pTyr and pTyr-Var Libraries), C-SH2 WT; assay type: binding; settings: for >3.2 --> C-WT-Ave: average enrichment score above cutoff of 3.2 (true binder); for C-WT-Ave (enrichment score): bacterial peptide display, frequency in enriched sample / input, average, Human pTyr Library N = 3, pTyr-Var Library N = 2
T3 construct: SHP2 SH2 domains were cloned into a His6-SUMO-SH2-Avi construct; His6-SUMO (N, cleaved yes); made in house; host or cells: E. coli C43(DE3), co-expressed with BirA
T3 sequence (Q06124 112-216 limits assumed): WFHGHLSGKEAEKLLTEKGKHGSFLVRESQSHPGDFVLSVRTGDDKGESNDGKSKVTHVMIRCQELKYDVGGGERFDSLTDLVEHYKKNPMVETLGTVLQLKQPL
Method: (§12) Next, we characterized the sequence specificity of the SH2 mutants relative to their wild-type counterparts in a large-scale, unbiased screen. […] For each peptide in a library, an enrichment score is calculated from the deep sequencing data as the frequency of the peptide in the SH2-enriched sample divided by the frequency of the peptide in the unenriched input sample ([34]). For this study, we used two largely non-overlapping libraries, both encoding known human phosphosites. […] The Human pTyr Library consists of 1,916 sequences derived from known phosphorylation sites in the human proteome, along with another 617 control mutants ([35]). […]
(§13) SH2 specificity profiling using bacterial peptide display
(§14) Preparation of bacterial cells
as §1, with “Electrocompetent MC1061 cells were transformed with ~100 ng of the respective library. After 1 hour recovery in 1 mL LB, cells were further diluted into 250 mL LB + 0.1% chloramphenicol. 1.8 mL of overnight culture was used to inoculate 100 mL LB + 0.1% chloramphenicol, and grown until OD600 reached” for “OD600 reached”
as §2, §3, §4, §5, §6, §7, §8, §9, §10
as §11, with “18 […]” for “18”
(§15) unique 5’ and 3’ indices to each sample (D700 and D500 series primers). The resulting PCR mixtures […]

[5] = target: T4, SHP2 N-SH2^WT domain (Homo sapiens, UniProt Q06124); experiment: SH2 specificity profiling by bacterial peptide display (Human pTyr and pTyr-Var Libraries), N-SH2 WT; assay type: binding; settings: for >3.2 --> N-WT-Ave: average enrichment score above cutoff of 3.2 (true binder); for N-WT-Ave (enrichment score): bacterial peptide display, enzymatically phosphorylated displayed peptides, SH2-coated beads, deep sequencing, frequency in enriched sample / input, average, Human pTyr Library N = 3, pTyr-Var Library N = 2
T4 construct: SHP2 SH2 domains were cloned into a His6-SUMO-SH2-Avi construct; His6-SUMO (N, cleaved yes); made in house; host or cells: E. coli C43(DE3), co-expressed with BirA
T4 sequence (Q06124 6-102 limits assumed): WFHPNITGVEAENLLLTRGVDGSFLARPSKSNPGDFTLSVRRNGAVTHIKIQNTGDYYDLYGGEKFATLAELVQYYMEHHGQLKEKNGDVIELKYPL
Method: as §12, §13, §14
as §1, with “Electrocompetent MC1061 cells were transformed with ~100 ng of the respective library. After 1 hour recovery in 1 mL LB, cells were further diluted into 250 mL LB + 0.1% chloramphenicol. 1.8 mL of overnight culture was used to inoculate 100 mL LB + 0.1% chloramphenicol, and grown until OD600 reached” for “OD600 reached”
as §2, §3, §4, §5, §6, §7, §8, §9, §10
as §11, with “18 […]” for “18”
as §15

[6] = target: T5, SHP2 C-SH2^E139D domain (Homo sapiens, UniProt Q06124, E139D); experiment: SH2 specificity profiling by bacterial peptide display (Human pTyr and pTyr-Var Libraries), C-SH2 E139D; assay type: binding; settings: for >3.2 --> C-E139D-Ave: average enrichment score above cutoff of 3.2 (true binder); for C-E139D-Ave (enrichment score): bacterial peptide display, frequency in enriched sample / input, average, Human pTyr Library N = 3, pTyr-Var Library N = 2
T5 construct: SHP2 SH2 domains were cloned into a His6-SUMO-SH2-Avi construct; His6-SUMO (N, cleaved yes); made in house; host or cells: E. coli C43(DE3), co-expressed with BirA
T5 sequence (Q06124 112-216 E139D limits assumed): T3 sequence (Q06124 112-216 limits assumed) with E28D
Method: as §12, §13, §14
as §1, with “Electrocompetent MC1061 cells were transformed with ~100 ng of the respective library. After 1 hour recovery in 1 mL LB, cells were further diluted into 250 mL LB + 0.1% chloramphenicol. 1.8 mL of overnight culture was used to inoculate 100 mL LB + 0.1% chloramphenicol, and grown until OD600 reached” for “OD600 reached”
as §2, §3, §4, §5, §6, §7, §8, §9, §10
as §11, with “18 […]” for “18”
as §15

| Compound | EC50 [1] [nM] | EC50 [2] [nM] | enrichment (fselected / finput) [3] | >3.2 --> C-WT-Ave [4] | C-WT-Ave (enrichment score) [4] | >3.2 --> N-WT-Ave [5] | N-WT-Ave (enrichment score) [5] | >3.2 --> C-E139D-Ave [6] | C-E139D-Ave (enrichment score) [6] |
| --- | --- | --- | --- | --- | --- | --- | --- | --- | --- |
| CC[C@H](C)[C@H](NC(=O)[C@@H](NC(=O)[C@H](C)NC(=O)[C@H](Cc1ccc(OP(=O)(O)O)cc1)NC(=O)[C@@H](NC(=O)[C@@H]1CCCN1C(=O)[C@H](CCC(=O)O)NC(=O)[C@@H]1CCCN1C(=O)[C@H](CO)NC(=O)[C@H](C)NC(C)=O)[C@@H](C)CC)[C@@H](C)O)C(=O)N[C@@H](CC(=O)O)C(=O)N[C@@H](Cc1ccccc1)C(=O)N[C@@H](CC(=O)O)C(N)=O | 1460 | 2820 | – | – | – | – | – | – | – |
| CC(=O)NCC(=O)N[C@@H](CC(=O)O)C(=O)N[C@@H](CCCCN)C(=O)N[C@@H](CCC(N)=O)C(=O)N[C@H](C(=O)N[C@@H](CCC(=O)O)C(=O)N[C@@H](Cc1ccc(OP(=O)(O)O)cc1)C(=O)N[C@@H](CC(C)C)C(=O)N[C@@H](CC(=O)O)C(=O)N[C@@H](CC(C)C)C(=O)N[C@@H](CC(=O)O)C(=O)N[C@@H](CC(C)C)C(=O)N[C@@H](CC(=O)O)C(N)=O)C(C)C | – | 26200 | – | – | – | – | – | – | – |
| ALDH2 pTyr 502 peptide FGLQA-pY-TEVKT E504K | – | – | 1.3 | – | – | – | – | – | – |
| MKGDAARYLAEVATG (bacterially displayed) [1433G_HUMAN_133_YA] | – | – | – | FALSE (>3.2 -->) | 0.8982 | FALSE (>3.2 -->) | 0.9356 | – | – |
| MKGDAHRYLAEFATG (bacterially displayed) [1433E_HUMAN_131_YA] | – | – | – | FALSE (>3.2 -->) | 0.6613 | FALSE (>3.2 -->) | 0.7788 | FALSE (>3.2 -->) | 0.7738 |
| MKGDYHRYLAEFATG (also: phosphorylated, site not given here) [1433E_HUMAN_131] | – | – | – | FALSE (>3.2 -->) | 0.8786 | FALSE (>3.2 -->) | 0.8269 | FALSE (>3.2 -->) | 0.911 |
| MKGDYYRYLAEVATG (also: phosphorylated, site not given here) [1433G_HUMAN_133] | – | – | – | FALSE (>3.2 -->) | 0.777 | FALSE (>3.2 -->) | 0.8572 | FALSE (>3.2 -->) | 0.8393 |
| SDRKGGSYTQAASSD (also: phosphorylated, site not given here) [1A01_HUMAN_344] | – | – | – | FALSE (>3.2 -->) | 0.7595 | FALSE (>3.2 -->) | 0.7728 | FALSE (>3.2 -->) | 0.8092 |

From article doi:10.1101/2023.07.10.548257 (bioRxiv, 2024)
